Assay results: publication PMC8810680 (Nature chemical biology, 2021)
Where “and” joins values, the source holds several entries; their conditions need not be identical. Equal values may be shown once. Values belong to the compound of their own block, whether it stands above or below them.

Legend:
GudB6-GltA2B2 = GudB6-GltA2B2 (Bacillus subtilis, UniProt O34399+P39812); experiment: cryo-EM structure, […] A; assay type: binding; settings: co-purified
[1] = molecular target: glutamate dehydrogenase GudB (untagged, in B. subtilis NCIB 3610) (B. subtilis (endogenous in strain NCIB 3610)); experiment: cryo-EM structure
[2] = molecular target: recombinant 6X His-tagged GudB (B. subtilis); experiment: cryo-EM structure
[3] = molecular target: recombinant 6X His-tagged GudB (B. subtilis); experiment: native MS
[4] = molecular target: glutamate dehydrogenase GudB (untagged, in B. subtilis NCIB 3610) (B. subtilis (endogenous in strain NCIB 3610)); experiment: native MS
[5] = molecular target: TwinStrep-tagged GltB (B. subtilis) (UniProt O34399); experiment: mass photometry
[6] = molecular target: recombinant Strep-tagged GudB (B. subtilis); experiment: native MS

recombinant 6X His-tagged GudB (B. subtilis), sequence (P50735 whole entry): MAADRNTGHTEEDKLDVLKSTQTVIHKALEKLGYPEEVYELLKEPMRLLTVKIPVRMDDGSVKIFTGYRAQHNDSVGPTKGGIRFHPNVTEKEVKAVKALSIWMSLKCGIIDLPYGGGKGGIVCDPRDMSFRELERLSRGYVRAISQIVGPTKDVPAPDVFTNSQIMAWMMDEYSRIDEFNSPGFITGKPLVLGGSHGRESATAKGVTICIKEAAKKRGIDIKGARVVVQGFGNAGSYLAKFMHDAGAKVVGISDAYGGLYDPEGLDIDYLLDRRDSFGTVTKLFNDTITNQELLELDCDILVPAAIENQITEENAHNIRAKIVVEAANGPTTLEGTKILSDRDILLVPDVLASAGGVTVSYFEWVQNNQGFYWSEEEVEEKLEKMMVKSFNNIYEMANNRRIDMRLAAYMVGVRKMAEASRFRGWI
GudB6-GltA2B2, sequence (P39812 22-1520): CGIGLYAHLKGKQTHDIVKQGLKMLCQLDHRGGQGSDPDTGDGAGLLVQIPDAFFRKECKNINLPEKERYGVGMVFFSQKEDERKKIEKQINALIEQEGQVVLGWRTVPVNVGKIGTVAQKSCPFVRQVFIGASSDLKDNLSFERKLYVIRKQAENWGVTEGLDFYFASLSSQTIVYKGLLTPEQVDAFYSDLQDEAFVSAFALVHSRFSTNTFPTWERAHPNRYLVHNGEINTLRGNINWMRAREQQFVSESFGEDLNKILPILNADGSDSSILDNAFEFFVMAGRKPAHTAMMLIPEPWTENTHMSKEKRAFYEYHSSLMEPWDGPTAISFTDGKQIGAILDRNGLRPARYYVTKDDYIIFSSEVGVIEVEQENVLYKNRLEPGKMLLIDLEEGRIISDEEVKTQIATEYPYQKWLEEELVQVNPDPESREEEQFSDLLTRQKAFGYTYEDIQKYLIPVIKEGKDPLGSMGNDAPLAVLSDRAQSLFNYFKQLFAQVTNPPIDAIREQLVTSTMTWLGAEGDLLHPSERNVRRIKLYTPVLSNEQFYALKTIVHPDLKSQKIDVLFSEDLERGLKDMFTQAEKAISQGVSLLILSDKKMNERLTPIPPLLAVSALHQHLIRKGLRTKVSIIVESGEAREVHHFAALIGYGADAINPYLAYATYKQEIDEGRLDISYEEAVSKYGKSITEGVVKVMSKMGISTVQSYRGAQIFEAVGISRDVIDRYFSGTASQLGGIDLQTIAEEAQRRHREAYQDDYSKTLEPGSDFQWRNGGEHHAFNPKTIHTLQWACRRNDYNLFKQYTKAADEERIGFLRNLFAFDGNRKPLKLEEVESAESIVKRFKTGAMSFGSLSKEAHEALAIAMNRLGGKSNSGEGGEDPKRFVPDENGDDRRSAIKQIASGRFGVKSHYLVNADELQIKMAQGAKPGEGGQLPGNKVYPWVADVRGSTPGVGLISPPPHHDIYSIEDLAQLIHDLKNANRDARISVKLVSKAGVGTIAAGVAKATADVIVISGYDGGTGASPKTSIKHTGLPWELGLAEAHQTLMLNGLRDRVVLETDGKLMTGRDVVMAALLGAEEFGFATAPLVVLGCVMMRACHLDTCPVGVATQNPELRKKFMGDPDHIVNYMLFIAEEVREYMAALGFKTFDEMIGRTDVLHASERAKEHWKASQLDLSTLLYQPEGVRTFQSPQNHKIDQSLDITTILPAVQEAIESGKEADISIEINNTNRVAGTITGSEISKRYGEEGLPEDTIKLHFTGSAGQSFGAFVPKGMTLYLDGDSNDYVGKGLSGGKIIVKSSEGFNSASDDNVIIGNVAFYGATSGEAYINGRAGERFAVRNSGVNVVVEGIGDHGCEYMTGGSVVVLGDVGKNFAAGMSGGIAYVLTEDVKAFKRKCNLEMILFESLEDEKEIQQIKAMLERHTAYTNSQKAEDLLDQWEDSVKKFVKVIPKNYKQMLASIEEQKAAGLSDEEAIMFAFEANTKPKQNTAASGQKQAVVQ
GudB6-GltA2B2, sequence (O34399 whole entry): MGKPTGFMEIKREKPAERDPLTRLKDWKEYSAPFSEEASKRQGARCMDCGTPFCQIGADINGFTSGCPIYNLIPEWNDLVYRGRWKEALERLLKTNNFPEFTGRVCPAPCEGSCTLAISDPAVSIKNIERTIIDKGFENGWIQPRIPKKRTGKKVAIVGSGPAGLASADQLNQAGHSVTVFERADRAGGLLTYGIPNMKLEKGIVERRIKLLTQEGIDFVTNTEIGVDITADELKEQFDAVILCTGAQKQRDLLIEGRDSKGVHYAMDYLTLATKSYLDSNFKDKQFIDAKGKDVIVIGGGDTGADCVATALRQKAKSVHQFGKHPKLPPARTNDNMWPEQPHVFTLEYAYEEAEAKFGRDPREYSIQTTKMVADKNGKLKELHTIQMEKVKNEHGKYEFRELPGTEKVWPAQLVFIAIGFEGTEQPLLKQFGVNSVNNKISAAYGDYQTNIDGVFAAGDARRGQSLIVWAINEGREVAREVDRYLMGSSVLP
GudB6-GltA2B2, sequence (A0A0C3GZC9 1-424 partner): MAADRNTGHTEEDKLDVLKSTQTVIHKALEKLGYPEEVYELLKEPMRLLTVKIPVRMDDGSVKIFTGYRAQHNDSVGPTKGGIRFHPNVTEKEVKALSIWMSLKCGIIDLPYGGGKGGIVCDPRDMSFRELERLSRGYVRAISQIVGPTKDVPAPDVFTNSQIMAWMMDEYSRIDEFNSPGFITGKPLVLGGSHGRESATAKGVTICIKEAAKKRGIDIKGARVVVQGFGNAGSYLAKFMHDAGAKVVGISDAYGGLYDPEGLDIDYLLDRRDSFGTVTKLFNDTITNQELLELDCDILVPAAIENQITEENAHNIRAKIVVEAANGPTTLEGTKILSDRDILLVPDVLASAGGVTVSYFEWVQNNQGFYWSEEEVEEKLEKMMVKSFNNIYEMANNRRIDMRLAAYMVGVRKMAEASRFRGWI
TwinStrep-tagged GltB (B. subtilis), sequence (O34399 whole entry): as the sequence (O34399 whole entry) above
glutamate dehydrogenase GudB (untagged, in B. subtilis NCIB 3610) (B. subtilis (endogenous in strain NCIB 3610)), sequence (P50735 whole entry): as the sequence (P50735 whole entry) above
glutamate dehydrogenase GudB (untagged, in B. subtilis NCIB 3610) (enzyme), sequence (P50735 whole entry): as above
recombinant Strep-tagged GudB (enzyme), sequence (P50735 whole entry): as above
recombinant 6X His-tagged GudB (enzyme), sequence (P50735 whole entry): as above

cryo-EM structure, 2.4 A (GudB6-GltA2B2; site in GltA): a 3Fe-4S clusters and FMN in GltA
Compound: Cc1cc2nc3c(=O)[nH]c(=O)nc-3n(C[C@H](O)[C@H](O)[C@H](O)COP(=O)(O)O)c2cc1C [FMN]

stoichiometry N [1]: 6
Compound: glutamate dehydrogenase GudB (untagged, in B. subtilis NCIB 3610) (enzyme)

stoichiometry N (GltAB heterodimers per GudB hexamer) [2]: 2 to 4
stoichiometry N (GltAB heterodimers per GudB hexamer) [1]: 6
stoichiometry N (GltAB heterodimers per GudB hexamer) [3]: 3 and 6
stoichiometry N (GltAB heterodimers per GudB hexamer) [4]: 6
percent of counts as GltAB, no ligand [5]: 5 % of counts
percent of counts as GltAB, with AKG [5]: 12 % of counts
percent of counts as GltAB, with AKG and NADPH [5]: 16 % of counts
Compound: glutamate synthase subunit GltA (from UniProt P39812 1-1520) (enzyme)

stoichiometry N [2]: 6
Compound: recombinant 6X His-tagged GudB (enzyme)

More lines, now with the values behind:

Compound: [S]12[Fe]3[S]4[Fe]1[S]1[Fe]2[S]3[Fe]41 [4Fe-4S cluster]
cryo-EM structure, 2.4 A (GudB6-GltA2B2; two clusters, site in GltB): unambiguous assignment of two 4Fe-4S clusters in GltB

Compound: Cc1cc2nc3c(=O)[nH]c(=O)nc-3n(C[C@H](O)[C@H](O)[C@H](O)COP(=O)(O)OP(=O)(O)OC[C@H]3O[C@@H](n4cnc5c(N)ncnc54)[C@H](O)[C@@H]3O)c2cc1C [FAD]
cryo-EM structure, 2.4 A (GudB6-GltA2B2; listed among GltAB cofactors in the figure legend only): The co-factors in GltAB: FAD, two 4Fe-4S clusters (SF4), 3Fe-4S cluster (F3S) and FMN

Compound: recombinant Strep-tagged GudB (enzyme)
stoichiometry N [6]: 6
